ChEMBL document CHEMBL1126199, “(R)-(-)- and (S)-(+)-adenallene: synthesis, absolute configuration, enantioselectivity of antiretroviral effect, and enzymic deamination” (J Med Chem, 1992)
“And” between values parts separate entries of the source, which are not always exact repeats. Identical values can stand only once.

Substrate: Nc1ncnc2c1ncn2C=C=CCO
Experiment: Vmax by adenosine deaminase

B1: Adenosine deaminase (Bos taurus), P56658 (protein)
chain: MAQTPAFNKPKVELHVHLDGAIKPETILYYGRKRGIALPADTPEELQNIIGMDKPLSLPEFLAKFDYYMPAIAGCREAVKRIAYEFVEMKAKDGVVYVEVRYSPHLLANSKVEPIPWNQAEGDLTPDEVVSLVNQGLQEGERDFGVKVRSILCCMRHQPSWSSEVVELCKKYREQTVVAIDLAGDETIEGSSLFPGHVKAYAEAVKSGVHRTVHAGEVGSANVVKEAVDTLKTERLGHGYHTLEDATLYNRLRQENMHFEVCPWSSYLTGAWKPDTEHPVVRFKNDQVNYSLNTDDPLIFKSTLDTDYQMTKNEMGFTEEEFKRLNINAAKSSFLPEDEKKELLDLLYKAYGMPSPASAEQCL
  Vmax: 0.41 µM/min and 0.52 µM/min
